Data as given in the supplement of paper PMC10065799, “High-throughput profiling of sequence recognition by tyrosine kinases and SH2 domains using bacterial peptide display” (eLife, 2023).

What was measured:
Grb2 SH2 = Grb2 SH2 (UniProt P62993); assay: SH2 binding enrichment of the phosphorylated peptide, bacterial display (enrichment ratio); higher = better substrate or ligand; peptides without Tyr show the background
SHP2-C SH2 = assay: as above
c-Src SH2 = assay: as above
FGFR3 = FGFR3 (UniProt P22607); assay: phosphorylation enrichment, bacterial display (enrichment ratio); higher = better substrate or ligand; peptides without Tyr show the background
Hck = Hck (UniProt P08631); assay: as above
Chain of Hck (P08631 whole entry, looked up): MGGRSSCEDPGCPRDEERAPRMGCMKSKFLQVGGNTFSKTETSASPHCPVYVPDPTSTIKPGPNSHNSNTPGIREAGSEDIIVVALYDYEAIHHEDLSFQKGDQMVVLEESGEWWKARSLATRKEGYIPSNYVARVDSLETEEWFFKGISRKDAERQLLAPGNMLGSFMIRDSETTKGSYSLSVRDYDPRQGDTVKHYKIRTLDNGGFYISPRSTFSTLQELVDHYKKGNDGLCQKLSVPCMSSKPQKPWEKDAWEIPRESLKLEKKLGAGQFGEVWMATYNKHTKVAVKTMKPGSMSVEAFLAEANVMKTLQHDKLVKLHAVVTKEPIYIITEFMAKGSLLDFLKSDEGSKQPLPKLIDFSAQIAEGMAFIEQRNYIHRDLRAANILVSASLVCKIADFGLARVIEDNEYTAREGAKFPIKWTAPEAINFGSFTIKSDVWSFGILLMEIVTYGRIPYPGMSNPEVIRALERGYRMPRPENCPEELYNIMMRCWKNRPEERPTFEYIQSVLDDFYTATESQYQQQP

c-Abl (mouse) = assay: as above
FGFR1 = FGFR1 (UniProt P11362); assay: as above
Chain of FGFR1 (P11362 whole entry, looked up): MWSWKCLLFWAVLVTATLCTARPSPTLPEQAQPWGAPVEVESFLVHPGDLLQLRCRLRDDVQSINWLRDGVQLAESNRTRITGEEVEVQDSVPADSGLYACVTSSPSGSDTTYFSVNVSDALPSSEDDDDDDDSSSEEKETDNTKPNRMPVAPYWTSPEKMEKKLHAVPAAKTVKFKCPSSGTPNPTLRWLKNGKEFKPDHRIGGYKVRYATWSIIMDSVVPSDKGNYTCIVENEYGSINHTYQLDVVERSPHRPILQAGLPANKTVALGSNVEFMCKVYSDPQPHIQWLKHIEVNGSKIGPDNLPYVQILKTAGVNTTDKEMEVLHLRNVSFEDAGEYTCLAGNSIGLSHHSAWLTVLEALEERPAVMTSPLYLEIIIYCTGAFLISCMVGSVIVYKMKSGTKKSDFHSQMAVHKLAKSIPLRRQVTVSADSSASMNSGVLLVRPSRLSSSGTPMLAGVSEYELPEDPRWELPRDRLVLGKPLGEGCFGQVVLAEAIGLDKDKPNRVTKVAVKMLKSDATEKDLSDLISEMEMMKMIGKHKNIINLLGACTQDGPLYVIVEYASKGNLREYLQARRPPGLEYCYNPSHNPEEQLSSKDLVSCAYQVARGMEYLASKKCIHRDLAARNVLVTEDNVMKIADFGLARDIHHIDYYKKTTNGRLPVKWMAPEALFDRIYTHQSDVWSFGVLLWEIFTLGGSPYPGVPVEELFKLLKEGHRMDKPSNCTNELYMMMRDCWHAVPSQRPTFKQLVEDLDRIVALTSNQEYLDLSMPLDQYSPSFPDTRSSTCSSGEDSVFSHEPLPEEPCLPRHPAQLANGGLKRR

Jak2 = Jak2 (UniProt O60674); assay: as above
Chain of Jak2 (O60674 whole entry, looked up): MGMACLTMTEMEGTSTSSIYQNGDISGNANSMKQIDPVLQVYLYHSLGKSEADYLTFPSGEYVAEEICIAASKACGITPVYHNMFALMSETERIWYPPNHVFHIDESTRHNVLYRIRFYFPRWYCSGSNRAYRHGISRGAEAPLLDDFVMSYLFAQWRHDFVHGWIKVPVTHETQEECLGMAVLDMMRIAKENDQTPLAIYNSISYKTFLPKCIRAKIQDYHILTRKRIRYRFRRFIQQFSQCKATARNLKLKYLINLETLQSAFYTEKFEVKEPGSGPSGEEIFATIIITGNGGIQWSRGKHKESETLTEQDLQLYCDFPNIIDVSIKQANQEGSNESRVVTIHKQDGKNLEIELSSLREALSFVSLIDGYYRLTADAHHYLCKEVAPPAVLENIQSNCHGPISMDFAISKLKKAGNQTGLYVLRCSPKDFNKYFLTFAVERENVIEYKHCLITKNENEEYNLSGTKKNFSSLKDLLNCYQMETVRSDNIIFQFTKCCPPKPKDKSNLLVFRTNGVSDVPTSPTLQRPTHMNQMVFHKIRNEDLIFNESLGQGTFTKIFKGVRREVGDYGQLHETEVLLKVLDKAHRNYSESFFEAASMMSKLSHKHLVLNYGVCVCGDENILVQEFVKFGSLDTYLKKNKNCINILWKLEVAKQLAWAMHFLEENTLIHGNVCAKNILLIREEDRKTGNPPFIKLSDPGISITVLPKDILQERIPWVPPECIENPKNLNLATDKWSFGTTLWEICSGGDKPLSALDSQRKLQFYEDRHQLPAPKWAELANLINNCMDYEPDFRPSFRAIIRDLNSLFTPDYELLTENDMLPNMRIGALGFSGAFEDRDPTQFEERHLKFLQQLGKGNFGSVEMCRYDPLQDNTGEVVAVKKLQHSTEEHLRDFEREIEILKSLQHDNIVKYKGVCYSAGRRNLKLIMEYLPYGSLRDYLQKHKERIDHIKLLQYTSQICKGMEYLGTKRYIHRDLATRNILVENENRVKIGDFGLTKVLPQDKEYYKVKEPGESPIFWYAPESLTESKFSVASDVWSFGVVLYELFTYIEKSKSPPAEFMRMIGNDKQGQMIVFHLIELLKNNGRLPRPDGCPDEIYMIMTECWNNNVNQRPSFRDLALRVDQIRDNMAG

EPHB2 = EPHB2 (UniProt P29323); assay: as above
Chain of EPHB2 (P29323 whole entry, looked up): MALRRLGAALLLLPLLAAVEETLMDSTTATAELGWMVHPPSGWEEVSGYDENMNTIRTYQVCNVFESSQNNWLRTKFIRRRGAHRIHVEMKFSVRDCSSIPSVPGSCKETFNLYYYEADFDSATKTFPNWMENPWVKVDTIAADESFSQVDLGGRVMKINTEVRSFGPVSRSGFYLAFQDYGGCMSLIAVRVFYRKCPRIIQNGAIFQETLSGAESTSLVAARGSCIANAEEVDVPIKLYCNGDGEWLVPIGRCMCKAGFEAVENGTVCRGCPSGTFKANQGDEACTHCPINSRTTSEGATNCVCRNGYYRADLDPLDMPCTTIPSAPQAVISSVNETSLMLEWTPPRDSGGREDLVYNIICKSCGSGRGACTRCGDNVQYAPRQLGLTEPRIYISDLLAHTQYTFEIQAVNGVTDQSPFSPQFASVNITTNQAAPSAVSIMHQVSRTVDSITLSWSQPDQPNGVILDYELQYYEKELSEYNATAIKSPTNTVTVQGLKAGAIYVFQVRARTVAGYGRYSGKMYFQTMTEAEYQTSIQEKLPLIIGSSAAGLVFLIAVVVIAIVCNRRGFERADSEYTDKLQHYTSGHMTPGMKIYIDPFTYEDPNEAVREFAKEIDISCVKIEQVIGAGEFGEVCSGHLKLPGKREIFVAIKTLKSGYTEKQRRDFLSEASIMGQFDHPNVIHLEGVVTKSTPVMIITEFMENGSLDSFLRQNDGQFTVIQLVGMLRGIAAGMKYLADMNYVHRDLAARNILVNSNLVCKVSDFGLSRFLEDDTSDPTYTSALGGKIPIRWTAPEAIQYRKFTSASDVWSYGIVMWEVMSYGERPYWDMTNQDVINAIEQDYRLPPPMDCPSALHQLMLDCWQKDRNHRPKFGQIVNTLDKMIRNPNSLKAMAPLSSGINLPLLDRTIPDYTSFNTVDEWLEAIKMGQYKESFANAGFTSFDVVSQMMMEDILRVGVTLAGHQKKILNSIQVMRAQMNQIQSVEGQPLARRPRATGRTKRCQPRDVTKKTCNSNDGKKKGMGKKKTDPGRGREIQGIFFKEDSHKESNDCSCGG

MERTK = MERTK (UniProt Q12866); assay: as above
Chain of MERTK (Q12866 whole entry, looked up): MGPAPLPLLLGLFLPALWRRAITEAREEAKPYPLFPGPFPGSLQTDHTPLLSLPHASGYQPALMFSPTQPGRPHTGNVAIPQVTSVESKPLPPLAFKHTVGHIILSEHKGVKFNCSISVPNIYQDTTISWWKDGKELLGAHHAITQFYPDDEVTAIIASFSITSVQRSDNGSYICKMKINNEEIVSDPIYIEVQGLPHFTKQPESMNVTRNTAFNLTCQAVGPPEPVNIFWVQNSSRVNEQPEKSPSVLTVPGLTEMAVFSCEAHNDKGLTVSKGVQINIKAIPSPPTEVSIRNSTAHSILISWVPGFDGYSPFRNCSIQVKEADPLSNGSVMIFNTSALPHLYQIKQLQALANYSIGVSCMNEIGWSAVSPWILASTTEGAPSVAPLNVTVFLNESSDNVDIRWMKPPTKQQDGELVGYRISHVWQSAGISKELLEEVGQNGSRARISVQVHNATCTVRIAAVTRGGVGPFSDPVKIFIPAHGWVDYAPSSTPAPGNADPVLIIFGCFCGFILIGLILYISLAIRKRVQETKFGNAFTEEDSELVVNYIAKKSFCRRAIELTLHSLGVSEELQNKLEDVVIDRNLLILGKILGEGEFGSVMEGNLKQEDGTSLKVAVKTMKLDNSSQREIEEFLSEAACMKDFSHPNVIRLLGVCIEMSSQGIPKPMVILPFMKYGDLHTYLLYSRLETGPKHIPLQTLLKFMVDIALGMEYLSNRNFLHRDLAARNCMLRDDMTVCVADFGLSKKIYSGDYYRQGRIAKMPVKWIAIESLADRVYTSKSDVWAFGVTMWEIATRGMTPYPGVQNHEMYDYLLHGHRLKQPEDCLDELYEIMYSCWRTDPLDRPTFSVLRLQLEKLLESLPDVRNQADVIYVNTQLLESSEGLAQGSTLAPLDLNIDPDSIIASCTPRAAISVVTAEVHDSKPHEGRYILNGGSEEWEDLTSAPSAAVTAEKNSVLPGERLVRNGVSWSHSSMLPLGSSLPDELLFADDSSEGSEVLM

AncSZ = assay: as above
EPHB1 = EPHB1 (UniProt P54762); assay: as above
Fer (mouse) = assay: as above
Fyn = Fyn (UniProt P06241); assay: as above
Chain of Fyn (P06241 whole entry, looked up): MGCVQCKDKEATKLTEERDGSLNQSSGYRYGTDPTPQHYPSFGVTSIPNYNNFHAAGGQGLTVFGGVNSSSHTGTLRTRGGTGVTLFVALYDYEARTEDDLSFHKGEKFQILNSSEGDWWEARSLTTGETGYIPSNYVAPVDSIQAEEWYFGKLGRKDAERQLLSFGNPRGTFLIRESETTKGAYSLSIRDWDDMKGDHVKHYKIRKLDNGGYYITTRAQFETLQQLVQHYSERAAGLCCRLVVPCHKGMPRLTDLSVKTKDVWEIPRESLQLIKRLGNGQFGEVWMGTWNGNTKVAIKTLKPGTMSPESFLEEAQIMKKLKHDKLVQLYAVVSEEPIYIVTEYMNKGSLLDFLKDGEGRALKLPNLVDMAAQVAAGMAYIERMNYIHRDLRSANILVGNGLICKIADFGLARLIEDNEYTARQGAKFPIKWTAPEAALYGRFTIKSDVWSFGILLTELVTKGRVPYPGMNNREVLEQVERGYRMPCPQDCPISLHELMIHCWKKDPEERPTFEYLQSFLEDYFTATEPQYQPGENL

Fes = Fes (UniProt P07332); assay: as above
c-Src = assay: as above
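Throughout, for SH2 binding enrichment of the phosphorylated peptide, bacterial display: peptide library displayed on the E. coli surface as eCPX fusions, selected cells deep-sequenced, score is each peptide's frequency after selection divided by its frequency in the input.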
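Throughout, for phosphorylation enrichment, bacterial display: 11-residue human phosphosite peptides and single-mutation variants displayed on the E. coli surface, counted by deep sequencing, each peptide's frequency after selection divided by its frequency in the unselected input library; frequency after pTyr selection over input frequency; kinase dosed for 20-30% of maximal phosphorylation in three min.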

SH2 binding enrichment (Grb2 SH2) | SH2 binding enrichment (SHP2-C SH2) | SH2 binding enrichment (c-Src SH2) | Sequence | phosphorylation enrichment (FGFR3) | phosphorylation enrichment (Hck) | phosphorylation enrichment (c-Abl (mouse)) | phosphorylation enrichment (FGFR1) | phosphorylation enrichment (Jak2) | phosphorylation enrichment (EPHB2) | phosphorylation enrichment (MERTK) | phosphorylation enrichment (AncSZ) | phosphorylation enrichment (EPHB1) | phosphorylation enrichment (Fer (mouse)) | phosphorylation enrichment (Fyn) | phosphorylation enrichment (Fes) | phosphorylation enrichment (c-Src)
0.863 | 0.739 | 0.538 | RGNKEYEEEKR [LENG1_Y96] | 0.686 | 0.737 | 0.458 | 0.407 | 0.822 | 0.493 | 0.314 | 0.723 | 0.519 | 0.394 | 0.534 | 0.756 | 0.323
1.1 | 0.82 | 0.519 | RGRDSYGGPPR [RBMX_Y190] | 0.563 | 0.64 | 0.934 | 0.604 | 0.557 | 0.613 | 0.632 | 0.744 | 0.427 | 0.589 | 0.721 | 0.734 | 0.8
0.941 | 0.27 | 0.479 | RGRKVYLEGGF [PRIM2_Y201_D204G] | 0.446 | 0.858 | 0.719 | 0.355 | 0.796 | 0.431 | 0.972 | 0.787 | 0.532 | 0.855 | 0.351 | 0.642 | 0.803
0.557 | 0.524 | 0.491 | RGRSTYFWPSP [GAGE12J_Y9_R13S_YF] | 0.615 | 0.824 | 0.711 | 0.49 | 0.673 | 0.621 | 0.947 | 0.669 | 0.468 | 0.504 | 0.511 | 0.564 | 0.505
0.707 | 1.27 | 5.05 | RGYRVYYTPDS [PTPRF_Y450] | 0.634 | 1.37 | 1.3 | 0.784 | 1.93 | 1.04 | 3.59 | 1.22 | 1.24 | 1.11 | 0.979 | 1.07 | 0.947
0.861 | 0.686 | 0.634 | RHEASYSSDSE [REPS1_Y116_A113E] | 0.841 | 0.954 | 0.662 | 0.722 | 0.784 | 0.591 | 0.461 | 1.03 | 0.837 | 0.777 | 0.845 | 1.19 | 0.427
1.25 | 0.878 | 1.09 | RHLREYPDLLN [DES_Y388_Q389P] | 0.71 | 0.53 | 0.404 | 0.584 | 0.73 | 0.463 | 0.569 | 0.695 | 0.375 | 0.352 | 0.389 | 0.822 | 0.453
1.59 | 0.851 | 1.79 | RHLREYQDLLI [DES_Y388_N393I] | 0.813 | 0.592 | 0.708 | 0.899 | 0.74 | 0.744 | 0.482 | 0.912 | 1.02 | 0.636 | 0.655 | 1.21 | 0.482
1 | 1.17 | 1.05 | RHPEVYHHLGV [NVL_Y290] | 0.602 | 1.09 | 0.701 | 1.08 | 0.823 | 0.419 | 0.537 | 0.778 | 2.11 | 0.423 | 0.419 | 0.787 | 0.632
1.49 | 1.28 | 0.984 | RHPLEYLRQFP [NARS2_Y138_YF] | 0.365 | 1.38 | 0.554 | 0.369 | 0.66 | 0.494 | 0.33 | 0.605 | 0.372 | 0.275 | 0.342 | 0.612 | 0.409
1.16 | 0.846 | 0.909 | RIVTTYIWERE [DNM2_Y463_R465W] | 0.862 | 0.619 | 0.745 | 0.595 | 0.989 | 0.455 | 0.403 | 1.82 | 0.526 | 0.538 | 0.712 | 1.31 | 0.405
1.06 | 0.905 | 0.407 | RKKEEYKMAPF [F8_Y1990_L1994P_YF] | 0.446 | 0.373 | 0.371 | 0.602 | 0.316 | 0.261 | 0.422 | 0.574 | 0.299 | 0.346 | 0.558 | 0.623 | 0.469
0.808 | 0.862 | 0.472 | RLIEGYTGPFK [ZNF862_Y181] | 1.29 | 1.3 | 1.12 | 1.13 | 1.79 | 0.927 | 1.23 | 1.59 | 1.07 | 1.21 | 1.1 | 1.75 | 1.29
1.16 | 1.25 | 0.999 | RLLRGYDQFAF [HLA-B_Y137_H137Y_YF] | 0.627 | 0.664 | 0.798 | 0.617 | 0.785 | 0.725 | 0.645 | 0.885 | 0.505 | 0.696 | 0.591 | 1.21 | 0.542
0.883 | 0.884 | 0.554 | RLLVDYPWTQR [HBB_Y36_V35D] | 0.75 | 0.476 | 0.465 | 0.544 | 0.516 | 0.542 | 0.411 | 0.978 | 0.591 | 0.45 | 0.616 | 0.759 | 0.351
1.48 | 1.27 | 1.05 | RLLVVYPGTQR [HBB_Y36_W38G] | 0.703 | 0.526 | 0.739 | 0.544 | 0.836 | 0.683 | 0.512 | 0.918 | 0.539 | 0.42 | 0.484 | 0.984 | 0.48
0.799 | 0.429 | 0.581 | RLLVVYPRTQR [HBB_Y36_W38R] | 0.525 | 0.704 | 0.799 | 0.685 | 1.07 | 0.81 | 0.658 | 1.05 | 0.457 | 0.619 | 0.785 | 1.28 | 0.484

SH2 binding enrichment (Grb2 SH2) | SH2 binding enrichment (SHP2-C SH2) | SH2 binding enrichment (c-Src SH2) | Sequence | phosphorylation enrichment (FGFR3) | phosphorylation enrichment (Hck) | phosphorylation enrichment (c-Abl (mouse)) | phosphorylation enrichment (FGFR1) | phosphorylation enrichment (Jak2) | phosphorylation enrichment (EPHB2) | phosphorylation enrichment (MERTK) | phosphorylation enrichment (AncSZ) | phosphorylation enrichment (EPHB1) | phosphorylation enrichment (Fer (mouse)) | phosphorylation enrichment (Fyn) | phosphorylation enrichment (Fes) | phosphorylation enrichment (c-Src)
1.8 | 1.67 | 1.46 | RLLVVYPWPQR [HBG2_Y36_T39P] | 0.703 | 0.518 | 0.494 | 0.527 | 0.617 | 0.606 | 0.917 | 0.97 | 0.443 | 0.512 | 0.489 | 1.7 | 0.456
1.1 | 0.622 | 1.01 | RLQEGYDHSFF [ESD_Y258_YF] | 0.57 | 0.508 | 0.728 | 0.52 | 0.85 | 0.364 | 0.538 | 1.12 | 0.457 | 0.422 | 0.427 | 0.794 | 0.824
0.884 | 0.634 | 0.393 | RLQKLYLDRNL [IGFALS_Y248] | 0.787 | 0.975 | 1.16 | 0.776 | 1.63 | 0.43 | 0.868 | 0.812 | 1.4 | 0.795 | 0.811 | 1.23 | 0.851
1.07 | 1.12 | 0.821 | RLRIDYERVSQ [DSP_Y1542] | 0.878 | 0.531 | 0.742 | 0.543 | 1.01 | 0.613 | 0.539 | 1.08 | 1.25 | 0.702 | 0.43 | 1.46 | 0.412
1.45 | 1.5 | 0.954 | RLVVVYPWTQR [HBB_Y36_L33V] | 1.1 | 0.646 | 0.846 | 0.491 | 1.2 | 1.23 | 0.727 | 1.07 | 0.575 | 0.652 | 0.771 | 1.17 | 0.709
0.721 | 0.548 | 0.425 | RMSRSYPTGLA [ADM_Y52_S50R] | 0.459 | 0.39 | 0.594 | 0.36 | 0.42 | 0.349 | 0.454 | 0.497 | 0.382 | 0.319 | 0.381 | 0.594 | 0.377
1.66 | 7.65 | 1.42 | RPAFTYATLIR [FOXP3_Y342_P339A] | 0.868 | 3.08 | 1.4 | 0.817 | 1.55 | 1.17 | 1.64 | 1.19 | 2.25 | 0.718 | 2.01 | 1.59 | 6.49
0.958 | 0.895 | 1.23 | RPPELYALMSD [ZAP70_Y569_C564R] | 1.36 | 2.17 | 1.81 | 1.44 | 2.28 | 3.94 | 15.2 | 2.05 | 14.6 | 1.17 | 1.28 | 2.19 | 1.84
0.695 | 0.504 | 0.477 | RRAKGYPIYLY [ITGB2_Y125_D128Y] | 1.18 | 0.807 | 0.951 | 0.59 | 0.682 | 0.624 | 0.698 | 0.997 | 0.44 | 0.652 | 0.684 | 0.922 | 1.04
0.802 | 0.564 | 0.455 | RRGFLYDSDEE [MCM2_Y137_L135F] | 0.458 | 0.764 | 0.679 | 0.429 | 0.812 | 0.686 | 0.589 | 0.629 | 0.397 | 0.501 | 0.512 | 0.761 | 0.625
0.538 | 0.526 | 0.384 | RRGMPYGGRGD [TGM1_Y312] | 0.904 | 0.739 | 0.75 | 0.686 | 0.686 | 0.881 | 0.871 | 0.878 | 0.839 | 0.746 | 0.749 | 0.618 | 0.68
0.915 | 1 | 0.526 | RRNNSYTCYTA [SLC20A2_Y386] | 0.536 | 0.523 | 1.02 | 0.645 | 1.24 | 0.678 | 0.665 | 1.04 | 1.81 | 0.615 | 0.73 | 1.2 | 0.865
0.784 | 7.11 | 3.02 | RRNTCYASIAK [ACADM_Y353_Y352C] | 0.347 | 0.391 | 0.333 | 0.272 | 0.294 | 0.332 | 0.332 | 0.369 | 0.287 | 0.424 | 0.4 | 0.467 | 0.279
0.81 | 0.441 | 1.14 | RSIGEYDVLRA [PRKDC_Y2936_G2941A] | 0.818 | 7.58 | 1.87 | 0.772 | 0.703 | 1.13 | 0.817 | 0.887 | 0.944 | 0.446 | 1.06 | 1.31 | 1.17
0.83 | 0.712 | 0.553 | RSSKMYLKTRS [LPL_Y329] | 0.885 | 0.758 | 0.585 | 0.8 | 0.827 | 0.792 | 1.53 | 1.07 | 0.484 | 0.541 | 0.631 | 1.24 | 0.452
0.628 | 0.58 | 0.504 | RSSKRYLKTRS [LPL_Y329_M328R] | 1.11 | 0.894 | 1.03 | 1.03 | 0.725 | 1.11 | 1.24 | 1.4 | 0.919 | 0.852 | 0.937 | 1.17 | 0.713
